The target of this assay is JCV major capsid protein VP1, wild type (John Cunningham virus (JCV)) (UniProt P03089). The assay can be described thus: cell-based or functional assay.

Positions count from the first letter of the chain named.

Sequence of JCV major capsid protein VP1, wild type (John Cunningham virus (JCV)) (P03089 whole entry): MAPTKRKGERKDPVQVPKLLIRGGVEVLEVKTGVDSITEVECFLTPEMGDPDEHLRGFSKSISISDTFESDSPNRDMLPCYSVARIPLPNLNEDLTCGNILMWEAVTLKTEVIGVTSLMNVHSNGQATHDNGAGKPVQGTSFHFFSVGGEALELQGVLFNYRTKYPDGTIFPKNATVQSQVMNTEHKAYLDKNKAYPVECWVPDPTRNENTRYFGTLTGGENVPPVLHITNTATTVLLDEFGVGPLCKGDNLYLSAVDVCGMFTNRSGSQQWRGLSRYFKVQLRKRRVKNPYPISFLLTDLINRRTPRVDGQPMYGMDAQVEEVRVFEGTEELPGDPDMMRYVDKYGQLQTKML

B1: 6G5 (antibody, V domains shown)
VH: QVQLVQSGAEVKKPGASVKVSCKASGYTFTNYDIHWVRQAAGQGLEWMGWTNPNSGNSDYAQKFQGRVSMTRDTSMRTMYMELNSLRSEDTAVYFCARKIWVGTTIFDYWGQGTLVTVSS
VL: DIQMTQSPSSLSASVGDRVTIACRASQSIYRFLSWYQQKPGTAPKLLIFAVSSLQSGVPSRFSGSGSGTDFTLTISSLHPEDFAIYYCQQSDSPPLTFGGGTKVGIK
B1: the Neutralization of WT JCV: EC50 [pM] was found to be 3.1 pM.

B2: 6H7 (antibody, V domains shown)
VH: QVQLVESGGGLVKPGGSLRLSCAGSGFTFSDHYMSWIRQAPGKGLEWVSYISTSGRTIFYVDSVKGRFTISRDNAKNSLYLQMNSLRAEDMAVYYCASDYYDNVGWNYWGQGALVIVSS
VL: DVVLTQSPLSLPVTLGQPASISCRSSQSLVYSDGNTYLNWFQQRPGQSPRRLIYKVSDRDFGVPDRFSGSGSGTDFTLKISRVEAEDVGIYYCMQGTHWPRTFGQGTKVEIK
As for B2, the Neutralization of WT JCV: EC50 [pM] was found to be 0.5 pM.

B3: 8C3 (antibody, V domains shown)
VH: B2 VH with G24A, F59H, V61A, N107D, A113T, I116T
VL: B2 VL with L4M, V30L, F61S, E86D, I90V, T97A
Molecule B3 had a Neutralization of WT JCV: EC50 [pM] of 14 pM.

B4: 5G5 (antibody, V domains shown)
VH: LVQLVESGGGLVKPGGSLRLSCTASGITFSDLYMSWIRQSPGKGLEWISYISTSGRTIYYTDSVKGRFTISRDNAKNSLFLQMNRLRADDTAVYYCAGDYYDNSGWDYWGRGTLVTVSS
VL: B2 VL with D1N, L4M, T14A, S26G, F61S
As to B4, the Neutralization of WT JCV: EC50 [pM] is 0.4 pM.

The values are drawn from patent US20220356228A1.
